Experimental findings from the RNAGym collection of RNA variant scans (doi:10.7554/elife.80360) are described below.

B1: Hairpin Ribozyme (parent)
chain: GUCCUCUUUCACGUGCGCGUGAAAGAGAGAAGUGAACCAGAGAAACACACGUUGUGGUAUAUUACCUGGUA

The variants in this data set derive from B1. Kind of data set: self-cleavage, relative activity (ratio to wild type); higher = more cleavage; co-transcriptional.
C6G U8A: the self-cleavage is 0.263. G54C G69A: the self-cleavage was 0.0998.

As for C46U C65U, the self-cleavage is 0.216. Next, C10U A35U: 0.568; G34C U62C: 1.1; G40U C50G: 0.136.

As to C38G U58G, the self-cleavage came to 0.175. For G29U G34U, the self-cleavage came out at 0.124. Next, U14C U60G: 0.727; A36U C46A: 0.0951. The figure for A30C U63A is 0.267; for A61U G68A it is 0.219; for G1U C50A it is 0.189. Next, G1A C65A: 0.285; A31C A35U: 0.181; U55A A71C: 0.697. C38G A43U: the self-cleavage is 0.154.

A35G G68A: the self-cleavage amounted to 0.309.

Regarding G21C G29U, the self-cleavage came out at 0.316. On to A24G A43G, for which the self-cleavage stood at 0.132. Next, A28C G51U: 0.746.

Turning to A24U A43C, the self-cleavage is 0.174.

Regarding C50G A71C, the self-cleavage amounted to 0.69. Next, U5G A36U: 0.0604. For the variant C18G G27U, the self-cleavage was found to be 0.199. Next, A43U U52C: 0.143; U7C G34U: 1.32. The figure for C3U A30G is 0.104; for A30G G68C it is 0.132.

On to C46A U55C, for which the self-cleavage is 0.324. Next, U58A A61U: 0.216. Next, A28C G42U: 0.0852. The figure for C10A A44C is 0.141; for U7C G21U it is 0.565.

Consider G32U A49C, for which the self-cleavage was 0.0697.

G19A A35C: the self-cleavage was 0.987.

Turning to A28U C48G, the self-cleavage amounted to 0.195. Next, G15C C50A: 0.169; A11C A23C: 0.622. In the case of C3A A30U, the self-cleavage is 0.16. Regarding A43G A44G, the self-cleavage turned out to be 0.0966. Next, U8A A36C: 0.412. G27U U55A: the self-cleavage worked out at 0.152. Next, G25A U70G: 0.509; U8A A28C: 0.385. Next, C37U G69U: 0.438. With C16U A41U, the self-cleavage came out at 1.4. In the case of G25C C66U, the self-cleavage was determined as 0.182. Take G40C U67G: the self-cleavage was found to be 0.157. The figure for C3G G42A is 0.0837; for U5C U20C it is 0.673. Take U8G C18A: the self-cleavage stood at 0.72. The figure for G25A U67C is 0.166; for C4G U7G it is 0.144; for U7A A61U it is 0.167. As to U20A U53A, the self-cleavage was determined as 0.758. As for G1U C6A, the self-cleavage was found to be 0.138.

As for U33G A35C, the self-cleavage worked out at 0.333. Next, G17C G69U: 0.196. The figure for G40U C65G is 0.099; for A28C G57U it is 0.0228.

Regarding U8G A26U, the self-cleavage is 0.281. The figure for G42A A45G is 0.138. The figure for C10A U70A is 0.498; for U53G G57A it is 0.178. Next, C48A A64C: 0.0601; A23G G69C: 0.303; C18A A64G: 0.61. Turning to C10U G42A, the self-cleavage was 0.195. Turning to C4A A71C, the self-cleavage stood at 0.674. The figure for C6G G34C is 1.03; for C12U U33A it is 0.205; for A11U G19A it is 0.79. The figure for A41U A47U is 0.207. Next, A28U U52G: 0.374; A64C G69C: 0.129; C6U A41C: 1.16. As for A11G A59C, the self-cleavage turned out to be 0.17. The figure for G1A G13C is 0.119. Next, A22U A49U: 0.293. Take U7G C46G: the self-cleavage was 0.134. The figure for A28G U62C is 0.302; for U33A A39C it is 0.105; for G34A U58C it is 1.11. Next, C12U A31U: 0.112; C4A U63A: 0.101; A22C A64U: 0.251.

Regarding A41G A49G, the self-cleavage was 0.504. The figure for C4U C37G is 0.147.

In the case of C6G G13C, the self-cleavage came out at 0.381. On to C4A G56A, for which the self-cleavage stood at 0.114. For the variant G54U, the self-cleavage stood at 0.626. On to C16U U58G, for which the self-cleavage amounted to 0.765.

As to C4G C10A, the self-cleavage worked out at 0.12.

A35U A47G: the self-cleavage was found to be 0.137. The figure for U55C A64G is 0.132; for A26U U52A it is 0.788.

Consider C6G U63C, for which the self-cleavage came to 0.142. Next, G57A U60C: 0.205. Next, A26C G27A: 0.139. U20A A31C: the self-cleavage amounted to 0.21. As for G1A U9A, the self-cleavage worked out at 0.198. With U2A A43G, the self-cleavage was 0.138. Next, A31C U70C: 0.0987. As for A35G U70A, the self-cleavage stood at 0.927. Regarding G42A U60C, the self-cleavage was 0.371.

Take C18G C46G: the self-cleavage was found to be 0.0987. Next, C10A U14C: 0.888; U7C G57A: 0.153. Consider C18U G19C, for which the self-cleavage was 0.89. Turning to A31C G68A, the self-cleavage was 0.152.

U2G A23C: the self-cleavage came out at 0.289. As to A45G U62G, the self-cleavage is 0.12. Next, C4A A26C: 0.13; A11U U20C: 1.11. Regarding G13U G69U, the self-cleavage is 0.246.

As to A22G U67G, the self-cleavage is 0.247. Consider C3U U70A, for which the self-cleavage came out at 0.305.

Take A28U C38A: the self-cleavage amounted to 0.159. Next, C46A A71G: 0.24. The figure for A31U G42A is 0.0839. Next, C12A A26C: 0.393. Turning to A61C, the self-cleavage worked out at 0.214. The figure for C10G G15C is 0.962; for G34U A36C it is 1.02.

On to G51A A71G, for which the self-cleavage was 0.934. Regarding A35C G69C, the self-cleavage worked out at 0.126. Next, C50G U67C: 0.0994.

Turning to G34U A47G, the self-cleavage stood at 0.444. Consider G19U G68C, for which the self-cleavage came to 0.196.

Turning to C37U G42C, the self-cleavage was 0.226.

Regarding C38G G69U, the self-cleavage was 0.155. Next, G13C A36G: 0.816; G17C A61C: 0.078. The figure for A44U C48U is 0.15; for U14A C37U it is 0.481. As for C18G U58A, the self-cleavage was 0.632. Next, G17A G34U: 0.967. For the variant A23G U53C, the self-cleavage was determined as 0.995. The figure for U14C G27C is 0.078; for C12G C48G it is 0.0599. Turning to A43C G68C, the self-cleavage came to 0. Next, C10A U62A: 0.238; A24U U60C: 1.09. Take U20G A64U: the self-cleavage is 0.141. Next, C46G C66G: 0.162. The figure for G1U A44G is 0.0639. Next, A23C C66U: 0.448. Regarding G13A G40C, the self-cleavage was 0.152. The figure for C4G U55A is 0.119.

In the case of U33G U63C, the self-cleavage came to 0.217. The figure for C37A U70G is 0.446; for C4A G27U it is 0.557.

As to A31G C48U, the self-cleavage was 0.257. Next, A44U G68U: 0.187; G17A A39G: 0.319.

Regarding U7C G13A, the self-cleavage was 0.615. The figure for G13A U52A is 1.01; for A39C C66U it is 0.306; for A30C C50A it is 0.0998.

Take A26G A59C: the self-cleavage stood at 0.162. Next, C48G U63A: 0.181; A26C A41G: 0.633; A47G U58G: 0.119. For the variant G51U C66A, the self-cleavage came to 0.192. As to G25A G42U, the self-cleavage was found to be 0.186. Next, U8G G25A: 0.21.
